Assay results: IntAct's records for PubMed 22575644

B1: Serine/threonine-protein kinase STK11 (Homo sapiens), Q15831 (parent)
chain: MEVVDPQQLGMFTEGELMSVGMDTFIHRIDSTEVIYQPRRKRAKLIGKYLMGDLLGEGSYGKVKEVLDSETLCRRAVKILKKKKLRRIPNGEANVKKEIQLLRRLRHKNVIQLVDVLYNEEKQKMYMVMEYCVCGMQEMLDSVPEKRFPVCQAHGYFCQLIDGLEYLHSQGIVHKDIKPGNLLLTTGGTLKISDLGVAEALHPFAADDTCRTSQGSPAFQPPEIANGLDTFSGFKVDIWSAGVTLYNITTGLYPFEGDNIYKLFENIGKGSYAIPGDCGPPLSDLLKGMLEYEPAKRFSIRQIRQHSWFRKKHPPAEAPVPIPPSPDTKDRWRSMTVVPYLEDLHGADEDEDLFDIEDDIIYTQDFTVPGQVPEEEASHNGQRRGLPKAVCMNGTEAAQLSTKSRAEGRAPNPARKACSASSKIRRLSACKQQ
B2: 14-3-3 protein zeta/delta (Homo sapiens), P63104 (parent)
chain: MDKNELVQKAKLAEQAERYDDMAACMKSVTEQGAELSNEERNLLSVAYKNVVGARRSSWRVVSSIEQKTEGAEKKQQMAREYREKIETELRDICNDVLSLLEKFLIPNASQAESKVFYLKMKGDYYRYLAEVAAGDDKKGIVDQSQQAYQEAFEISKKEMQPTHPIRLGLALNFSVFYYEILNSPEKACSLAKTAFDEAIAELDTLSEESYKDSTLIMQLLRDNLTLWTSDTQGDEAEAGEGGEN
partner: B1 chain
B3: Serine/threonine-protein kinase STK11 (Homo sapiens), Q15831 (parent)
chain: B1 chain
partner: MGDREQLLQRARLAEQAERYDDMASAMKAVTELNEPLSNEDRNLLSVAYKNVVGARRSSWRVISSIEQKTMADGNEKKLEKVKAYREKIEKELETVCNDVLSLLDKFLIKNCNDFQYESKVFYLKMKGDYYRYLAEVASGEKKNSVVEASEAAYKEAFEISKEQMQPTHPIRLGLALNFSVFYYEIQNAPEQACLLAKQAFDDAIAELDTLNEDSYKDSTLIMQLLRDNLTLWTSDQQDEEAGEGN
B4: Serine/threonine-protein kinase STK11 (Homo sapiens), Q15831 (parent)
chain: B1 chain
partner: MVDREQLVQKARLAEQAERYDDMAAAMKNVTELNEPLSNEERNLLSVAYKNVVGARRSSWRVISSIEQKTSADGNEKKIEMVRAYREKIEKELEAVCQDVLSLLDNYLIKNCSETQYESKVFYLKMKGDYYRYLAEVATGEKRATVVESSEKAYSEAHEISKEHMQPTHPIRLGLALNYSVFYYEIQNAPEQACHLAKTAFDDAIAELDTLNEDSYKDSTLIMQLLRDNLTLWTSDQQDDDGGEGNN

Variants of: B1
Settings: with 1433z_human YWHAZ

Variant	effect of a mutation on the interaction
T336A	disrupting interaction

Variants of: B2
Settings: with stk11_human STK11, Q15831

Variant	effect of a mutation on the interaction
K49E	disrupting interaction

Variants of: B3
Settings: with 1433f_human YWHAH

Variant	effect of a mutation on the interaction
T336A	disrupting interaction

Variants of: B4
Settings: with 1433g_human YWHAG

Variant	effect of a mutation on the interaction
T336A	disrupting interaction
